In paper PMC11964602 (Bioactive Materials, 2025):
Where no end group is shown, it is not given here.

Target: SARS-CoV-2 M^pro (Severe acute respiratory syndrome coronavirus 2, UniProt P0DTD1)
Assay: biochemical
Assay type: biochemical
Settings: for M^pro inhibition (%): 100 µM

Row | Compound | M^pro inhibition (%) | further results
1 | CC[C@H](C)[C@H](NC(=O)[C@H](CCC(=O)O)NC(=O)[C@H](C)NC(=O)[C@H](CCSC)NC(=O)[C@H](CC(=O)O)NC(=O)[C@@H]1CCCN1C(=O)[C@H](CCCCN)NC(=O)[C@H](CC(=O)O)NC(=O)[C@H](CO)NC(C)=O)C(=O)N[C@@H](CCC(=O)O)C(=O)N[C@@H](CCCCN)C(=O)N[C@@H](Cc1ccccc1)C(=O)N[C@@H](CC(=O)O)C(=O)N[C@@H](CCCCN)C(=O)N[C@@H](CO)C(=O)N[C@@H](CCCCN)C(=O)N[C@@H](CC(C)C)C(=O)N[C@@H](CCCCN)C(=O)N[C@@H](CCCCN)C(=O)N[C@H](C(=O)N[C@@H](CCC(=O)O)C(=O)N[C@H](C(=O)N[C@@H](CCC(N)=O)C(=O)N[C@@H](CCC(=O)O)C(=O)N[C@@H](CCCCN)C(=O)N[C@@H](CC(N)=O)C(=O)N1CCC[C@H]1C(=O)N[C@@H](CC(C)C)C(=O)N1CCC[C@H]1C(=O)N[C@@H](CO)C(=O)N[C@@H](CCCCN)C(=O)N[C@@H](CCC(=O)O)C(=O)N[C@H](C(=O)N[C@H](C(=O)N[C@@H](CCC(=O)O)C(=O)N[C@@H](CCC(N)=O)C(=O)N[C@@H](CCC(=O)O)C(=O)N[C@@H](CCCCN)C(=O)N[C@@H](CCC(N)=O)C(=O)N[C@@H](C)C(=O)NCC(=O)N[C@@H](CCC(=O)O)C(=O)N[C@@H](CO)C(=O)O)[C@@H](C)CC)[C@@H](C)O)[C@@H](C)O)[C@@H](C)O [Ac-Tβ4, Acetyl-thymosin β4] |  | inhibition at 100 µM (read-out: M^pro inhibition (%)): 7.09%; IC50 against SARS-CoV-2 M^pro (six inhibitor concentrations 100 μM–97.65 nM): no inhibition
2 | Ac-SDKP |  | M^pro inhibition, in vitro screening of Ac-Tβ1-17 fragments (iterative N- and C-terminal fragments of Ac-Tβ1-17): less than 50%
3 | Ac-Tβ4_1-11: peptide metabolite of Ac-Tβ4, amino acids 1-11 (Ac-SDKPDMAEIEK; UniProt P62328 2-12, looked up, fragment) | 1.25 | 
4 | Ac-Tβ4_1-15: peptide metabolite of Ac-Tβ4, amino acids 1-15 (Ac-SDKPDMAEIEKFDKS) | 34.4 | 
5 | Ac-Tβ4_17-43: peptide metabolite of Ac-Tβ4, amino acids 17-43 (LKKTETQEKNPLPSKETIEQEKQAGES; Thymosin beta-4; UniProt P62328 18-44, looked up, fragment) | 25.16 | 
6 | Ac-Tβ4_31-43: peptide metabolite of Ac-Tβ4, amino acids 31-43 (KETIEQEKQAGES; Thymosin beta-4; UniProt P62328 32-44, looked up, fragment) | 1.88 | 
